Patent publication US20210380640A1
Like-named read-outs stand apart in the source and are kept apart here.

How the values were obtained:
[1] = target: SARS-CoV-2 spike protein (SARS-CoV-2) (UniProt P0DTC2)
[2] = target: SARS-CoV-2 spike protein (SARS-CoV-2) (UniProt P0DTC2); remark: listed apart in the source
[3] = target: full-length recombinant MrkA protein with an N-terminal 6xHis-SUMO-tag (MyBiosource, MBS1248970) (Klebsiella pneumoniae) (UniProt P12267); experiment: sandwich ELISA 3, PCC immobilised, MrkA 50 nM; reference cy(LLFFF)
[4] = target: full-length recombinant MrkA protein with an N-terminal 6xHis-SUMO-tag (MyBiosource, MBS1248970) (Klebsiella pneumoniae) (UniProt P12267); experiment: sandwich ELISA 2, PCC immobilised, MrkA 25 nM; reference cy(LLFFF)
[5] = target: full-length recombinant MrkA protein with an N-terminal 6xHis-SUMO-tag (MyBiosource, MBS1248970) (Klebsiella pneumoniae) (UniProt P12267); experiment: sandwich ELISA 6, PCC immobilised, MrkA 25 nM; reference cy(LLFFF)
[6] = target: full-length recombinant MrkA protein with an N-terminal 6xHis-SUMO-tag (MyBiosource, MBS1248970) (Klebsiella pneumoniae) (UniProt P12267); experiment: sandwich ELISA 5, PCC immobilised, MrkA 25 nM; reference cy(LLFFF)
[7] = target: full-length recombinant MrkA protein with an N-terminal 6xHis-SUMO-tag (MyBiosource, MBS1248970) (Klebsiella pneumoniae) (UniProt P12267); experiment: sandwich ELISA 4, PCC immobilised, MrkA 100 nM; the reference itself
[8] = target: full-length recombinant MrkA protein with an N-terminal 6xHis-SUMO-tag (MyBiosource, MBS1248970) (Klebsiella pneumoniae) (UniProt P12267); experiment: sandwich ELISA 6, PCC immobilised, MrkA 25 nM; the reference itself
[9] = target: full-length recombinant MrkA protein with an N-terminal 6xHis-SUMO-tag (MyBiosource, MBS1248970) (Klebsiella pneumoniae) (UniProt P12267); experiment: sandwich ELISA 3, PCC immobilised, MrkA 50 nM; the reference itself
[10] = target: full-length recombinant MrkA protein with an N-terminal 6xHis-SUMO-tag (MyBiosource, MBS1248970) (Klebsiella pneumoniae) (UniProt P12267); experiment: sandwich ELISA 2, PCC immobilised, MrkA 25 nM; the reference itself
[11] = target: full-length recombinant MrkA protein with an N-terminal 6xHis-SUMO-tag (MyBiosource, MBS1248970) (Klebsiella pneumoniae) (UniProt P12267); experiment: sandwich ELISA 1, PCC immobilised, [MrkA] N/A; the reference itself
[12] = target: full-length recombinant MrkA protein with an N-terminal 6xHis-SUMO-tag (MyBiosource, MBS1248970) (Klebsiella pneumoniae) (UniProt P12267); experiment: sandwich ELISA 5, PCC immobilised, MrkA 25 nM; the reference itself
[13] = target: full-length recombinant MrkA protein with an N-terminal 6xHis-SUMO-tag (MyBiosource, MBS1248970) (Klebsiella pneumoniae) (UniProt P12267); experiment: ELISA, PCC immobilised, full-length recombinant MrkA
[14] = target: full-length recombinant MrkA protein with an N-terminal 6xHis-SUMO-tag (MyBiosource, MBS1248970) (Klebsiella pneumoniae) (UniProt P12267); experiment: sandwich ELISA, biotinylated PCC immobilised, His-SUMO-MrkA titrated (FIG. 3A)
[15] = target: full-length recombinant MrkA protein with an N-terminal 6xHis-SUMO-tag (MyBiosource, MBS1248970) (Klebsiella pneumoniae) (UniProt P12267); experiment: sandwich ELISA 4, PCC immobilised, MrkA 100 nM; reference cy(LLFFF)

How did the EC50 [1] turn out when G1Gld (peptide) was run?
Its EC50 is 4.2 nM.

Which EC50 [1] does the source give for GGarn (peptide) here?
The EC50 was 3.4 nM.

How did the EC50 [2] turn out when aakrG (peptide) was run?
Its EC50 is 16.4 nM.

How did the EC50 [1] turn out when andkd (peptide) was run?
The EC50 was 4.2 nM.

How did the EC50 [2] turn out when avtr (peptide) was run?
Its EC50 is 3.4 nM.

With cy(AAFFF) (peptide) as the substance, how does the Relative affinity (ratio of ELISA signal to cy(LLFFF)) [3] read?
The Relative affinity (ratio of ELISA signal to cy(LLFFF)) was 0.15.

Which Relative affinity (ratio of ELISA signal to cy(LLFFF)) [4] does the source give for cy(ALFFF) (peptide) here?
The Relative affinity (ratio of ELISA signal to cy(LLFFF)) was 0.53.

Which Relative affinity (ratio of ELISA signal to cy(LLFFF)) [5] does the source give for cy(DLFFF) (peptide) here?
The Relative affinity (ratio of ELISA signal to cy(LLFFF)) was 0.21.

For cy(HLFFF) (peptide), which Relative affinity (ratio of ELISA signal to cy(LLFFF)) [5] is on record?
Its Relative affinity (ratio of ELISA signal to cy(LLFFF)) is 0.81.

For cy(LAFFF) (peptide), which Relative affinity (ratio of ELISA signal to cy(LLFFF)) [4] is on record?
Its Relative affinity (ratio of ELISA signal to cy(LLFFF)) is 0.26.

How did the Relative affinity (ratio of ELISA signal to cy(LLFFF)) [4] turn out when cy(LLAFF) (peptide) was run?
The Relative affinity (ratio of ELISA signal to cy(LLFFF)) was 0.59.

With cy(LLFAF) (peptide) as the substance, how does the Relative affinity (ratio of ELISA signal to cy(LLFFF)) [4] read?
Its Relative affinity (ratio of ELISA signal to cy(LLFFF)) is 0.1.

cy(LLFFA) (peptide) was tested. Which Relative affinity (ratio of ELISA signal to cy(LLFFF)) [4] did it give?
Its Relative affinity (ratio of ELISA signal to cy(LLFFF)) is 0.04.

How did the Relative affinity (ratio of ELISA signal to cy(LLFFF)) [6] turn out when cy(LLFFF)+R3 (peptide) was run?
Its Relative affinity (ratio of ELISA signal to cy(LLFFF)) is 0.9.

For cy(LLFFF)+R6 (peptide), which Relative affinity (ratio of ELISA signal to cy(LLFFF)) [6] is on record?
Its Relative affinity (ratio of ELISA signal to cy(LLFFF)) is 1.22.

Which Relative affinity (ratio of ELISA signal to cy(LLFFF)) [6] does the source give for cy(LLFFF)+R9 (peptide) here?
The Relative affinity (ratio of ELISA signal to cy(LLFFF)) was 0.58.

For cy(LLFFF), biotinylated (peptide), which Relative affinity (ratio of ELISA signal to cy(LLFFF)) [7] is on record?
Its Relative affinity (ratio of ELISA signal to cy(LLFFF)) is 1.

And the Relative affinity (ratio of ELISA signal to cy(LLFFF)) [8]?
Its Relative affinity (ratio of ELISA signal to cy(LLFFF)) is 1.

And the Relative affinity (ratio of ELISA signal to cy(LLFFF)) [9]?
The Relative affinity (ratio of ELISA signal to cy(LLFFF)) was 1.

And the Relative affinity (ratio of ELISA signal to cy(LLFFF)) [10]?
Its Relative affinity (ratio of ELISA signal to cy(LLFFF)) is 1.

What about the Relative affinity (ratio of ELISA signal to cy(LLFFF)) [11] of the same substance?
Its Relative affinity (ratio of ELISA signal to cy(LLFFF)) is 1.

And the Relative affinity (ratio of ELISA signal to cy(LLFFF)) [12]?
Its Relative affinity (ratio of ELISA signal to cy(LLFFF)) is 1.

What about the EC50 [13] of the same substance?
The EC50 was 230 nM.

And the EC50 [14]?
Its EC50 is 50 nM.

For cy(TTFFF) (peptide), which Relative affinity (ratio of ELISA signal to cy(LLFFF)) [15] is on record?
The Relative affinity (ratio of ELISA signal to cy(LLFFF)) was 0.04.

With dpvtd (peptide) as the substance, how does the EC50 [1] read?
Its EC50 is 4.1 nM.

With dyGvd (peptide) as the substance, how does the EC50 [2] read?
The EC50 was 2.9 nM.

How did the EC50 [2] turn out when dynGp (peptide) was run?
The EC50 was 2.9 nM.

For edlvk (peptide), which EC50 [2] is on record?
Its EC50 is 4.3 nM.

eprnn (peptide) was tested. Which EC50 [2] did it give?
The EC50 was 11 nM.

With fdtta (peptide) as the substance, how does the EC50 [2] read?
Its EC50 is 3.2 nM.

With nkvyG (peptide) as the substance, how does the EC50 [2] read?
Its EC50 is 4.4 nM.

With nnpdh (peptide) as the substance, how does the EC50 [1] read?
Its EC50 is 3.8 nM.

For sdyre (peptide), which EC50 [1] is on record?
Its EC50 is 4.2 nM.

With senfd (peptide) as the substance, how does the EC50 [2] read?
Its EC50 is 3.8 nM.

With skdfd (peptide) as the substance, how does the EC50 [2] read?
The EC50 was 3.2 nM.

skevd (peptide) was tested. Which EC50 [2] did it give?
The EC50 was 4.6 nM.

With tGarn (peptide) as the substance, how does the EC50 [1] read?
The EC50 was 3.1 nM.

For tsthG (peptide), which EC50 [2] is on record?
Its EC50 is 3.6 nM.

How did the EC50 [1] turn out when ydrsd (peptide) was run?
Its EC50 is 4.2 nM.

ykdld (peptide) was tested. Which EC50 [2] did it give?
Its EC50 is 4 nM.
